This data set in a line: label from the status in PepcDB records.

With “MSLRIVVTVKYVPDATGDRHFAEDLTVDRDDVDGLLSELDEYAVEQALQIADDADDADDAEITVLTVGPEDAKDALRKALSMGADKAIHVEDDDLHGTDVIGTSLVLAKAIEKAGYDLVISGMASTDGTAGVVPALLAERLGVPQVTLLSEVSVEDGVVKGRRDGDSASEQLEASLPAVVSVTDQSGEARYPSFKGIMAAKKKPVESWDLSDLDLEAEEVGLEGAWTKVDSATERPARTAGTIVKDEGEGGKQLAEFLAGQKFI”, the protein production result is given as “failed”.

As for “MSLRLKKLQKIVPYSPLKSLKIWHLFCVVRLCSIVVTSMTAGKTPTHFTTQPLNRVLGETSGAFADLGTFLPLVLGLIALNQFSPQGIFLGFGVFAILSALFYRRPMPVQPMKVIAALVIAQGLTPGMLQASAMLMGIILLILAFSGAITWLAKQLSQAVSVGIQLAIGLQLMWMGAKMMSDFWLLGLGAFALLFASKFLPLRYLAMPLVIAAGMIWQANSQTDMATSLSIPALSASLHLAWPTLNEWSSAAILLVLPQLALTLTNAVIATSVMAQEKFPEDAAKLTPKNLAISSGLANLLLAPFGAAAMCHGAGGLAVQYHFGARTHLAPLIFGGTCLVIALFWDSQMAWLLGLIPVAILGSLLSIGGLQLAWSKRLIDGKPFCIFVILSTAVTCLAINAAAGLAVGIILEQGRRTWAMLAMR”, the protein production result is on record as “failed”.

Take “MSLRPRVLLVEDSTSLAILYKQYVKDEPYDIFHVETGRDAIQFIERSKPQLIILDLKLPDMSGEDVLDWINQNDIPTSVIIATAHGSVDLAVNLIQKGAEDFLEKPINADRLKTSVALHLKRAKLEDLVEGHHHHHH”: the protein production result is “not failed”.

As to “MSLRSEQEMMDIFLDFALNDERIRLVTLEGSRTNRNIPPDNFQDYDISYFVTDVESFKENDQWLEIFGKRIMMQKPEDMELFPPELGNWFSYIILFEDGNKLDLTLIPIREAEDYFANNDGLVKVLLDKDSFINYKVTPNDRQYWIKRPTAREFDDCCNEFWMVSTYVVKGLARNEILFAIDHLNEIVRPNLLRMMAWHIASQKGYSFSMGKNYKFMKRYLSNKEWEELMSTYSVNGYQEMWKSLFTCYALFRKYSKAVSEGLAYKYPDYDEGITKYTEGIYCSVKEGHHHHHH”, the protein production result is on record as “not failed”.

In the case of “MSLRSHFATQKDQWQTYTKEKKIKIGFDATFVPMGYEEKDGSYIGFDIDLANAVFKLYGIDVEWQAIDWDMKETELKNGTIDLIWNGYSVTDERKQSADFTEPYMVNEQVLVTKKSSGIDSVAGMAGKTLGAQAGSSGYDAFNASPKILKDVVANQKVVQYSTFTQALIDLNSGRIDGLLIDRVYANYYLEKSGVLDQYNVMPAGYEGESFAVGARKVDKTLIKKINQGFETLYKNGEFQKISNKWFGEDVATDQVKGKREGHHHHHH”, the protein production result is “not failed”.

Turning to “MSLRTGKTNVIALVLSVDEELMGFTSQMVFGITEVLSTTQYHLVVTPHIHAKDSMVPIRYILETGSADGVIISKIEPNDPRVRFMTERNMPFVTHGRSDMGIEHAFHDFDNEAYAYEAVERLAQCGRKRIAVIVPPSRFSFHDHARKGFNRGIRDFGLTEFPIDAVTIETPLEKIRDFGQRLMQSSDRPDGIVSISGSSTIALVAGFEAAGVKIGEDVDIVSKQSAEFLNWIKPQIHTVNEDIKLAGRELAKALLARINGEAAETLQSISGPVWSSMAPKEGHHHHHH”, the protein production result was “not failed”.

In the case of “MSLRTLVAGVDTSTQSCKVRVTDAETGELVRFGQAKHPNGTSVDPSYWWSAFQEAAEQAGGLDDVSALAVGGQQHGMVILDNQGNVIRDAMLWNDTSSAPQAAALIEKLGAAPAQDGEPEDPIARGKQRWVKAVGSSPVASYTLTKVAWVAENEPENVKKIAAICLPHDWLSWRIAGYGPVAEGEDAHLEALFTDRSDASGTIYYDAASNEYRRDLIAMVLEAAEGAKAAQSHAEAIVLPTVLGPRDAAPVKADPAIAGKNVEGGCLLAPGGGDNAMASLGLGMAVGDVSISLGTSGVAAAISENPTYDLTGAVSGFADCTGHYLPLACTINGSRILDAGRAALGVDYDELAKLAFASKPGANGITLVPYFDGERTPNRPNATATFSGMTLANTTRENLARAFVEGLLCSQRDCLELIRSLGASITRILLIGGGAKSEAIRTLAPSILGMDVTRPATDEYVAIGAARQAAWVLSGETEPPAWQLTIDGVETGEPTEAVYEAYAKARGEGHHHHHH”, the protein production entry was “not failed”.

As for “MSLRVYVTGNITVDETWSIPDIPKKGASIHGVKVSQDIGGKGANQAIILSRCGIETRLIAATGNDSNGAWIRQQIKNEPLMLLPDGHFNQHSDTSIILNSADGDNAIITTTAAADTFSLDEMIPHMADAVAGDILLQQGNFSLDKTRALFQYARSRGMTTVFNPSPVNPDFCHLWPLIDIAVVNESEAELLQPYGVKTLVITQGAAGAWLVQEGQRQFCPAVPAEALDTTGAGDTFLAVMLASALLRGVAPDALALAHASRAAAITVSRRGTLSAFPGSRELAALLTTDGAEGHHHHHH”, the protein production result is on record as “not failed”.

Take “MSLRWQWRIYEEPLQEPLTTAQGVWRSRSGIYLRLEDEQGQVGYGEIAPLPGWGSETLNADIALCQQLPGHLTPEIMATIPEALPAAQFGFATAWQSVGRLPYRVRPWPICALLGSGQAALEQWQQSWQRGQTTFKWKVGVMSPEEEQAILKALLAALPPGAKLRLDANGSWDRATANRWFAWLDRHGNGKIEYVEQPLPPDQWQALLSLAQTVTTAIALDESVVSAAEVQRWVDRGWPGFFVIKTALFGDPDSLSLLLRRGLEPQRLVFSSALEGAIARTAIFHLLETWQPCHALGFGVDRWRSAPLLTTLTAYERLWERLDQGHHHHHH”: the protein production entry is “not failed”.

On to “MSLSASLPLAIERRPAAWTFTLSRPEKRNALSAELVEALIDGVDAAHREQVPLLVFAGAGRNFSAGFDFTDYETQSEGDLLLRMVRIEMLLQRVAGSPSLTLALAHGRNFGAGVDLFAACKWRYCTPEAGFRMPGLKFGLVLGTRRFRDIVGADQALSILGSARAFDADEARRIGFVRDCAAQAQWPALIDAAAEAATALDPATRATLHRVLRDDHDDADLAALARSAAQPGFKARIRDYLAQPAAEGHHHHHH”, for which the protein production entry is given as “not failed”.

Take “MSLSFLKHVQDCNTHDLSNFVRFVIEGRRVGWVRKALAQRLKAHGRVFDVTRDAVLLSASLRTPQSRTRAVADVVDRLADEGVVPAPRGELYRVNQSWGEPTLMLLDRAVVPTFGVRAYGVHLNGYVGAGADLHLWIGRRSPDKSVAPGKLDNMVAGGQPADLSLRQNLIKECAEEADLPEALARQAIPVGAITYCMESPAGIKPDTLFLYDLALPEDFRPHNTDGEMADFMLWPAAKVVEAVRTTEAFKFNVNLTVIDFAIRHGLIDPDNEPDYQEILAGLRGRPRERAASEGHHHHHH”: the protein production entry is reported as “not failed”.

Consider “MSLSLKIALISQNENLLNLFPKLALEKNFIPITKTASLTRASKIAFGLQDEVDAIISRGATSDYIKKSVSIPSISIKVTRFDTMRAVYNAKRFGNELALIAYKHSIVDKHEIEAMLGVKIKEFLFSSEDEITTLISKVKTENIKIVVSGKTVTDEAIKQGLYGETINSGEESLRRAIEEALNLIEVRNEGHHHHHH”, for which the protein production result is given as “not failed”.

For “MSLSLYYKKIREQLGHELIFMPSVAAVIKNEQGELLFQYPGGEYWSLPAGAIEPGETPEEAVIREVWEETGLKVQVKKQKGVFGGKEFRYTYANGDKVEYIVVVFECEITSGKLKSIDGESLKLQYFSFSEKPPLALPYPDKIFLEGHHHHHH”, the protein production entry was “not failed”.

Turning to “MSLSMRDPVIPGTSMAYHPFLPHRAPDFAMSAVLGHQPPFFPALTLPPNGAAALSLPGALAKPIMDQLVGAAETGIPFSSLGPQAHLRPLKTMEPEEEVEDDPKVHLEAKELWDQFHKRGTEMVITKSGRRMFPPFKVRCSGLDKKAKYILLMDIIAADDCRYKFHNSRWMVAGKADPEMPKRMYIHPDSPATGEQWMSKVVTFHKLKLTNNISDKHGFTLAFPSDHATWQGNYSFGTQTILNSMHKYQPRFHIVRANDILKLPYSTFRTYLFPETEFIAVTAYQNDKITQLKIDNNPFAKGFRDTGNGRREKRKQLTLQSMRVFDERHKKENGTSDESSSEQAAFNCFAQASSPAASTVGTSNLKDLCPSEGESDAEAESKEEHGPEACDAAKISTTTSEEPCRDKGSPAVKAHLFAAERPRDSGRLDKASPDSRHSPATISSSTRGLGAEERRSPVREGTAPAKVEEARALPGKEAFAPLTVQTDAAAAHLAQGPLPGLGFAPGLAGQQFFNGHPLFLHPSQFAMGGAFSSMAAAGMGPLLATVSGASTGVSGLDSTAMASAAAAQGLSGASAATLPFHLQQHVLASQGLAMSPFGSLFPYPYTYMAAAAAASSAAASSSVHRHPFLNLNTMRPRLRYSPYSIPVPVPDGSSLLTTALPSMAAAAGPLDGKVAALAASPASVAVDSGSELNSRSSTLSSSSMSLSPKLCAEKEAATSELQSIQRLVSGLEAKPDRSRSASP”, the protein production result is on record as “failed”.

For the sequence “MSLSNHSSDIEVGHSMNLTNHFLVAMPSMKDPYFKRSVIYICEHNQDGAMGLMINAPIDITVGGMLKQVDIEPAYPQSHQENLKKPVFNGGPVSEDRGFILHRPRDHYESSMKMTDDIAVTTSKDILTVLGTEAEPEGYIVALGYSGWSAGQLEVELTENSWLTIEADPELIFNTPVHEKWQKAIQKLGISPAQLSSDAGHEGGSHHHHHH”, the protein production result is “not failed”.

Take “MSLSNKIFTHSLPMRYADFPTLVDALDYAALSSAGMNFYDRRCQLEDQLEYQTLKARAEAGAKRLLSLNLKKGDRVALIAETSSEFVEAFFACQYAGLVAVPLAIPMGVGQRDSWSAKLQGLLASCQPAAIITGDEWLPLVNAATHDNPELHVLSHAWFKALPEADVALQRPVPNDIAYLQYTSGSTRFPRGVIITHREVMANLRAISHDGIKLRPGDRCVSWLPFYHDMGLVGFLLTPVATQLSVDYLRTQDFAMRPLQWLKLISKNRGTVSVAPPFGYELCQRRVNEKDLAELDLSCWRVAGIGAEPISAEQLHQFAECFRQVNFDNKTFMPCYGLAENALAVSFSDEASGVVVNEVDRDILEYQGKAVAPGAETRAVSTFVNCGKALPEHGIEIRNEAGMPVAERVVGHICISGPSLMSGYFGDQVSQDEIAATGWLDTGDLGYLLDGYLYVTGRIKDLIIIRGRNIWPQDIEYIAEQEPEIHSGDAIAFVTAQEKIILQIQCRISDEERRGQLIHALAARIQSEFGVTAAIDLLPPHSIPRTSSGKPARAEAKKRYQKAYAASLNVQESLAEGHHHHHH”: the protein production result was “not failed”.

Consider “MSLSQDGLLGEVLSEGVLTLTLGRAPAHPLSRAMIAALHDALRRAMGDDHVHVLVIHGPGRIFCAGHDLKEIGRHRADPDEGRAFVTDLFEACSALMLDLAHCPKPTIALVEGIATAAGLQLMAACDLAYASPAARFCLPGVQNGGFCTTPAVAVSRVIGRRAVTEMALTGATYDADWALAAGLINRILPEAALATHVADLAGALAARNQAPLRRGLETLNRHLELPLEQAYALATPVMVEHFMDPGRRHLDWIDEGHHHHHH”, for which the protein production entry was “not failed”.

Turning to “MSLSSGRTVPTRSHGLGKEGVSTTGASQVEFGDPELTARINDAMVQVEELLHTELSSGEDFLVDIVMHLTRAGGKRFRPMFALLASEFGEKPLSENVIKAAVVVEITHLATLYHDDVMDEASMRRGVPSANARWDNSVAILAGDILLAHASGLMSQLGTDTVAHFAETFGELVTGQMRETVGPRDTDPIEHYTNVIREKTGVLIASAGYLGAMHAGAAPEHIDALKNFGAAVGMIFQIVDDIIDIFSETHESGKTPGTDLREGVFTLPVLYALREDTPVGAELRDILTGPLEDDETVNHVLELLSQSGGRQAALDEVYRYMDIANAELDRLPDSTVKEALRNLATFTVKRVGEGHHHHHH”, the protein production entry was “not failed”.
